Key:
[1] = target: human β-NGF (human) (UniProt P01138); experiment: ELISA, plate coated with 0.5 µg/mL human β-NGF; antibody 1 µg/mL diluted 1:729; duplicate well 1
[2] = target: NGF (as used in the TF-1 cell proliferation assays); experiment: cell-based or functional assay
[3] = target: human β-NGF (human) (UniProt P01138); experiment: ELISA, plate coated with 0.5 µg/mL human β-NGF; antibody 1 µg/mL diluted 1:81; duplicate well 2
[4] = target: human β-NGF (human) (UniProt P01138); experiment: ELISA, plate coated with 0.5 µg/mL human β-NGF; antibody 1 µg/mL diluted 1:3; duplicate well 2
[5] = target: human β-NGF (human) (UniProt P01138); experiment: ELISA, plate coated with 0.5 µg/mL human β-NGF; antibody 1 µg/mL diluted 1:729; duplicate well 2
[6] = target: human β-NGF (human) (UniProt P01138); experiment: ELISA, plate coated with 0.5 µg/mL human β-NGF; antibody 1 µg/mL diluted 1:3; duplicate well 1
[7] = target: human β-NGF (human) (UniProt P01138); experiment: ELISA, plate coated with 0.5 µg/mL human β-NGF; antibody 1 µg/mL diluted 1:27; duplicate well 1
[8] = target: human β-NGF (human) (UniProt P01138); experiment: ELISA, plate coated with 0.5 µg/mL human β-NGF; antibody at 1 µg/mL; duplicate well 2
[9] = target: human β-NGF (human) (UniProt P01138); experiment: ELISA, plate coated with 0.5 µg/mL human β-NGF; antibody 1 µg/mL diluted 1:243; duplicate well 2
[10] = target: human β-NGF (human) (UniProt P01138); experiment: ELISA, plate coated with 0.5 µg/mL human β-NGF; antibody 1 µg/mL diluted 1:27; duplicate well 2
[11] = target: human β-NGF (human) (UniProt P01138); experiment: ELISA, plate coated with human β-NGF, anti-human IgG-HRP detection, 4-parameter fit
[12] = target: human β-NGF (human) (UniProt P01138); experiment: ELISA, plate coated with 0.5 µg/mL human β-NGF; antibody 1 µg/mL diluted 1:81; duplicate well 1
[13] = target: human β-NGF (human) (UniProt P01138); experiment: ELISA, plate coated with 0.5 µg/mL human β-NGF; antibody 1 µg/mL diluted 1:243; duplicate well 1
[14] = target: human β-NGF (human) (UniProt P01138); experiment: ELISA, plate coated with 0.5 µg/mL human β-NGF; antibody at 1 µg/mL; duplicate well 1
[15] = target: human β-NGF (human) (UniProt P01138); experiment: ELISA, plate coated with 0.5 µg/mL human β-NGF; antibody 1 µg/mL diluted 1:9; duplicate well 1
[16] = target: human β-NGF (human) (UniProt P01138); experiment: ELISA, plate coated with 0.5 µg/mL human β-NGF; antibody 1 µg/mL diluted 1:9; duplicate well 2

Chain of human β-NGF (human) (P01138 122-241 limits assumed): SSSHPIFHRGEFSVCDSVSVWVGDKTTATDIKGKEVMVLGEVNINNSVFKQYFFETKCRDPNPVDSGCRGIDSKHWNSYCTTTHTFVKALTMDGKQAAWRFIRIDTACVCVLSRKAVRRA

OD (450 nm) [1]: 0.227 OD (450 nm)
neutralizing EC50 to NGF (inhibition of NGF-induced TF-1 cell proliferation, CCK-8) [2]: 0.21 nM
OD (450 nm) [3]: 1.27 OD (450 nm)
OD (450 nm) [4]: 2.55 OD (450 nm)
OD (450 nm) [5]: 0.245 OD (450 nm)
OD (450 nm) [6]: 2.66 OD (450 nm)
OD (450 nm) [7]: 2.17 OD (450 nm)
OD (450 nm) [8]: 2.71 OD (450 nm)
OD (450 nm) [9]: 0.609 OD (450 nm)
OD (450 nm) [10]: 1.97 OD (450 nm)
EC50 [11]: 0.103 nM
OD (450 nm) [12]: 1.18 OD (450 nm)
OD (450 nm) [13]: 0.56 OD (450 nm)
OD (450 nm) [14]: 2.77 OD (450 nm)
OD (450 nm) [15]: 2.48 OD (450 nm)
OD (450 nm) [16]: 2.27 OD (450 nm)
Substance: Pfizer antibody Tanezumab

From US20210155683A1
